# Test results taken from patent publication US20230106247A1 (L AND L BIO CO LTD NINGBO CHINA, published 2023).
# Numbering of substitutions follows the chain as printed.
# B1: bispecific antibody LB503 (bispecific antibody, human IgG4 S228P, kappa)
# light: EIVLTQSPATLSLSPGERATLSCRASKGVSTSGYSYLHWYQQKPGQAPRLLIYLASYLESGVPARFSGSGSGTDFTLTISSLEPEDFAVYYCQHSRDLPLTFGGGTKVEIKRTVAAPSVFIFPPSDEQLKSGTASVVCLLNNFYPREAKVQWKVDNALQSGNSQESVTEQDSKDSTYSLSSTLTLSKADYEKHKVYACEVTHQGLSSPVTKSFNRGECAGGGGSGGGGSGGGGSQVQLVQSGAEVKKPGASVKVSCKASGYNFNIYWINWVRQAPGQGLEWIGNIYPSSISTNYNEKFKTRATLTVDKSTSTVYMELSSLRSEDTAVYYCARSEGTYYGGRYEGDWFGYWGQGTLVTVSSGGGGSGGGGSGGGGSDIQMTQSPSSLSASVGDRVTITCRASQDIRNYLNWYQQKPGKAPKLLIYFTSTLHSGVPSRFSGSGSGTDFTLTISSLQPEDFATYYCQQGNTLPWTFGGGTKVEIK
# heavy: not shown
# notes: mab14-h16 scFv at the C-terminus of the Pem light chain
# B2: bispecific antibody LB501 (bispecific antibody, human IgG4 S228P, kappa)
# light: DIQMTQSPSSLSASVGDRVTITCRASQDIRNYLNWYQQKPGKAPKLLIYFTSTLHSGVPSRFSGSGSGTDFTLTISSLQPEDFATYYCQQGNTLPWTFGGGTKVEIKGGGGSGGGGSGGGGSQVQLVQSGAEVKKPGASVKVSCKASGYNFNIYWINWVRQAPGQGLEWIGNIYPSSISTNYNEKFKTRATLTVDKSTSTVYMELSSLRSEDTAVYYCARSEGTYYGGRYEGDWFGYWGQGTLVTVSSGGGGSGGGGSGGGGSEIVLTQSPATLSLSPGERATLSCRASKGVSTSGYSYLHWYQQKPGQAPRLLIYLASYLESGVPARFSGSGSGTDFTLTISSLEPEDFAVYYCQHSRDLPLTFGGGTKVEIKRTVAAPSVFIFPPSDEQLKSGTASVVCLLNNFYPREAKVQWKVDNALQSGNSQESVTEQDSKDSTYSLSSTLTLSKADYEKHKVYACEVTHQGLSSPVTKSFNRGEC
# heavy: not shown
# notes: mab14-h16 scFv at the N-terminus of the Pem light chain
# B3: bispecific antibody LB502 (bispecific antibody, human IgG4 S228P, kappa)
# light: EIVLTQSPATLSLSPGERATLSCRASKGVSTSGYSYLHWYQQKPGQAPRLLIYLASYLESGVPARFSGSGSGTDFTLTISSLEPEDFAVYYCQHSRDLPLTFGGGTKVEIKRTVAAPSVFIFPPSDEQLKSGTASVVCLLNNFYPREAKVQWKVDNALQSGNSQESVTEQDSKDSTYSLSSTLTLSKADYEKHKVYACEVTHQGLSSPVTKSFNRGEC
# heavy: not shown
# notes: mab14-h16 scFv at the N-terminus of the Pem heavy chain
# B4: bispecific antibody LB504 (bispecific antibody, human IgG4 S228P, kappa)
# light: B3 light
# heavy: not shown
# notes: mab14-h16 scFv at the C-terminus of the Pem heavy chain
# B5: humanized antibody mab14-h14 (antibody, human IgG4 S228P, kappa, V domains shown)
# VH: QVQLVQSGAEVKKPGASVKVSCKASGYNFNIYWINWVRQAPGQGLEWIGNIYPSSISTNYNEKFKTRATLTVDKSTSTVYMELSSLRSEDTAVYYCARSEGTYYGGRYEGDWFGYWGQGTLVTVSS
# VL: DIQMTQSPSSLSASVGDRVTITCRASQDIRNYLNWYQQKPGGTPKLLIYFTSTLHSGVPSRFSGSGSGTDYTLTISSLQPEDFATYYCQQGNTLPWTFGGGTKVEIKR
# notes: hIgG4, κ
# B6: humanized antibody mab14-h4 (antibody, human IgG4 S228P, kappa, V domains shown)
# VH: B5 VH with K74T
# VL: B5 VL with P44V
# notes: hIgG4, κ
# B7: humanized antibody mab14-h1 (antibody, human IgG4 S228P, kappa, V domains shown)
# VH: B5 VH with I48M, A68V, L70M, V72R, K74T
# VL: B5 VL with G42K, T43A, Y71F
# notes: hIgG4, κ
# B8: humanized antibody mab14-h15 (antibody, human IgG4 S228P, kappa, V domains shown)
# VH: B5 VH
# VL: B5 VL with G42K
# notes: hIgG4, κ
# B9: humanized antibody mab14-h5 (antibody, human IgG4 S228P, kappa, V domains shown)
# VH: B5 VH
# VL: B5 VL with P44V
# notes: hIgG4, κ
# B10: humanized antibody mab14-h2 (antibody, human IgG4 S228P, kappa, V domains shown)
# VH: B5 VH with R38K, R67K, L83F
# VL: B5 VL with P44V
# notes: hIgG4, κ
# B11: humanized antibody mab14-h9 (antibody, human IgG4 S228P, kappa, V domains shown)
# VH: B5 VH with R38K, R67K, L83F
# VL: B5 VL with T43A
# notes: hIgG4, κ
# B12: humanized antibody mab14-h12 (antibody, human IgG4 S228P, kappa, V domains shown)
# VH: B5 VH
# VL: B5 VL with Y71F
# notes: hIgG4, κ
# B13: humanized antibody mab14-h7 (antibody, human IgG4 S228P, kappa, V domains shown)
# VH: B5 VH with R38K, R67K, K74T
# VL: B5 VL with P44V
# notes: hIgG4, κ
# B14: humanized antibody mab14-h8 (antibody, human IgG4 S228P, kappa, V domains shown)
# VH: B5 VH with R38K, R67K, L83F
# VL: B5 VL with Y71F
# notes: hIgG4, κ
# B15: humanized antibody mab14-h6 (antibody, human IgG4 S228P, kappa, V domains shown)
# VH: B5 VH with R38K, K74T
# VL: B5 VL with P44V
# notes: hIgG4, κ
# B16: humanized antibody mab14-h11 (antibody, human IgG4 S228P, kappa, V domains shown)
# VH: B5 VH with R38K, R67K, L83F
# VL: B5 VL with G42K
# notes: hIgG4, κ
# B17: humanized antibody mab14-h3 (antibody, human IgG4 S228P, kappa, V domains shown)
# VH: B5 VH with I48M, K74T
# VL: B5 VL with P44V
# notes: hIgG4, κ
# B18: humanized antibody mab14-h10 (antibody, human IgG4 S228P, kappa, V domains shown)
# VH: B5 VH with R38K, R67K, L83F
# VL: B5 VL
# notes: hIgG4, κ
# B19: humanized antibody mab14-h13 (antibody, human IgG4 S228P, kappa, V domains shown)
# VH: B5 VH
# VL: B5 VL with T43A
# notes: hIgG4, κ
# Target: T1, human PD-1 (recombinant, hFc/his tag) (human, UniProt Q15116 21-167)
# T1 construct: not shown: hFc or his tag
# Test: blocking ELISA, competitor PD-L1
# Method: (§1) The antigens PD-1 and Sirpα expressed according to the method of Example 1 were diluted with a PBS buffer at pH7.4 to a concentration of 2 μg/mL, added into a 96-well ELISA plate (Corning, CLS3590-100EA) at a volume of 50 μL/well, and incubated at 37° C. for 2 hours. After the liquid was discarded, the wells were added with a blocking solution of 5% skimmed milk (Sangon Biotech (Shanghai) Co., Ltd., A600669-0250) formulated with PBS at 200 μL/well, and incubated at 37° C. for 3 hours for blocking. […] The plate was washed with PBST for 5 times, added with 50 μL/well of HRP-labeled secondary antibody (GenScript Biotechnology Co., Ltd., M00091) diluted at 1:1000, and incubated at 37° C. for 1 hour. The plated was washed with PBST for 5 times, then added with 50 μl/well of TMB chromogenic substrate (KPL, 52-00-03), incubated at room temperature for 5-10 min, added with 50 μl/well of 1 M H₂SO₄ to stop the reaction, and read by a […] Go microplate reader (ThermoFisher, 51119200) for the absorbance value at 450 nm, and then IC₅₀ was calculated according to the OD value.
row,Binder,IC50
1,B1,1450 pM
2,B2,1300 pM
3,B3,2000 pM
4,B4,1090 pM

# Target: T2, human Sirpα-V1-hFc (human, UniProt P78324 31-373)
# T2 construct: range 31-373; also called hSirpα (dimer); hSirpα-V1-hFc (dimer); not shown: human IgG1 Fc region at the C-terminus
# Test: blocking ELISA, competitor CD47-his
# Method: as §1
row,Binder,IC50
1,B1,4800 pM
2,B2,2550 pM
3,B3,3780 pM
4,B4,4620 pM

# Target: T1, human PD-1 (recombinant, hFc/his tag)
# Test: ELISA
# Method: (§2) The self-expressed human PD-1, Sirpα and the like antigens of the present disclosure were diluted with a PBS buffer at pH7.4 to a concentration of 2 μg/mL according to different assays, and then added into a 96-well ELISA plate (Corning, CLS3590-100EA) at a volume of 50 μL/well, and placed in an incubator at 37° C. for 2 hours. After the liquid was discarded, the wells were added with a blocking solution of 5% skimmed milk (Sangon Biotech (Shanghai) Co., Ltd., A600669-0250) diluted with PBS at 200 μL/well, and incubated in an incubator at 37° C. for 3 hours, or placed overnight at 4° C. (for 16-18 hours) for blocking. The blocking solution was discarded, and the plate was washed with a PBST buffer (pH7.4 PBS containing 0.05% tween-20) for 5 times, then added with 50 μL/well of 5-fold serial dilution of the antibody to be tested in 1% BSA, and incubated at 37° C. for 1 hour. […] The plated was washed with PBST for 5 times, then added with 50 μL/well of TMB chromogenic substrate (KPL, 52-00-03), incubated at room temperature for 5-10 min, added with 50 μL/well of 1 M H₂SO₄ to stop the reaction, and read by a […] Go microplate reader (ThermoFisher, 51119200) for the absorbance value at 450 nm, and then EC₅₀ was calculated according to the OD value.
# (§3) The aforementioned bispecific antibodies were cloned, expressed and purified according to the cloning, expression and purification methods of Example 1 of the present disclosure.
row,Binder,EC50
1,B1,63 pM
2,B2,75 pM
3,B3,74 pM
4,B4,61 pM

# Target: T3, human Sirpα-V1-his (human, UniProt P78324 31-373)
# T3 construct: range 31-373; Bought (Sino Biological 11612-H08H) or expressed in-house; also called hSirpα-V1; hSirpα-V1-his
# Test: ELISA
# Method: as §2, §3
row,Binder,EC50
1,B1,75 pM
2,B2,59 pM
3,B3,66 pM
4,B4,55 pM

# Target: T3, human Sirpα-V1-his
# Test: ELISA
# Remark: another data set of the same source
row,Binder,EC50
1,B5,57 pM
2,B6,88 pM
3,B7,148 pM
4,B8,77 pM
5,B9,61 pM
6,B10,73 pM
7,B11,62 pM
8,B12,92 pM
9,B13,81 pM
10,B14,67 pM
11,B15,95 pM
12,B16,73 pM
13,B17,103 pM
14,B18,68 pM
15,B19,89 pM

# Target: T3, human Sirpα-V1-his
# Test: blocking ELISA, competitor CD47-hFc
# Method: (§4) The recombinant proteins such as human Sirpα-V1-hFc/Sirpα-V1-his were diluted to concentrations of 5 μg/mL or 2 μg/mL respectively with a PBS buffer at pH 7.4, and then added into a 96-well ELISA plate (Corning, CLS3590-100EA) at a volume of 50 μL/well, and placed in an incubator at 37° C. for 2 hours. After the liquid was discarded, the wells were added with a blocking solution of 5% skimmed milk (skimmed milk powder available from Bright Dairy) diluted with PBS at 230 μL/well, and incubated in an incubator at 37° C. for 3 hours, or placed overnight at 4° C. (for 16-18 hours) for blocking. […] The plate was washed for 5 times, added with 50 μL/well of streptavidin-HRP (GenScript, M00091) or anti-his-HRP secondary antibody (GenScript, A00612) diluted at 1:1000, incubated at 37° C. for 1 hour, and then washed with PBST for 5 times. Each well was added with 50 μL of TMB (Surmodic, Cat #: TTMB-1000-01) for color development, and added with 50 μL/well of 1 M H₂SO₄ to stop the reaction. The readings on a microplate reader (MultiskanGO Thermo, Model 51119200) were subjected to data analysis by GraphPad prism 5.
row,Binder,IC50
1,B5,9100 pM
2,B8,7370 pM
3,B9,8470 pM
4,B12,8080 pM
5,B19,9560 pM

# Target: T2, human Sirpα-V1-hFc
# Test: blocking ELISA, competitor CD47-his
# Remark: another data set of the same source
# Method: as §4
row,Binder,IC50
1,B5,4750 pM
2,B8,5130 pM
3,B9,8990 pM
4,B12,3490 pM
5,B19,5310 pM

# Target: T3, human Sirpα-V1-his
# Test: blocking ELISA, competitor CD47-hFc
# Remark: another data set of the same source
# Method: as §1
row,Binder,IC50
1,B1,7630 pM
2,B2,5420 pM
3,B3,5370 pM
4,B4,6630 pM
